Test results reported in publication doi:10.1101/2025.09.05.674518 (bioRxiv, 2025).
Changes are numbered by the printed parent chain.

T1: M527D MXA (Homo sapiens, UniProt P20591)
T1 chain: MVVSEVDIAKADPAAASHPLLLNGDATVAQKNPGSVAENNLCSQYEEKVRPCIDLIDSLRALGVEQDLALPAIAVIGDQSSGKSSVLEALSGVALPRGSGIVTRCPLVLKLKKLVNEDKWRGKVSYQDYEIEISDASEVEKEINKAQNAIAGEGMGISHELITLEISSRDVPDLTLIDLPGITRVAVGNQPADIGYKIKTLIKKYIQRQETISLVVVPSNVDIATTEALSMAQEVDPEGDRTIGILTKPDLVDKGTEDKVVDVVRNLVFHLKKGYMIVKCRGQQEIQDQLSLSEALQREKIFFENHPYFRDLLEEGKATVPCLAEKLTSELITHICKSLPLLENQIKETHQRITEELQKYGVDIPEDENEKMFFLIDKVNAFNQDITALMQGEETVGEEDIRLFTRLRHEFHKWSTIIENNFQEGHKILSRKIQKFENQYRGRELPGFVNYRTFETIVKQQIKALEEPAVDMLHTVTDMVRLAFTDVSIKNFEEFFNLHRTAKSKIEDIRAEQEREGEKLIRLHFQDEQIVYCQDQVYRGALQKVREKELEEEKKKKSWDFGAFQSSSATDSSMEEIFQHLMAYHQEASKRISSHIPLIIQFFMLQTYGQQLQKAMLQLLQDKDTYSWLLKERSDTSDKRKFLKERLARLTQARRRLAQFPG

B1: VHH7, His6-tagged, purified from Pichia pastoris (VHH)
VHH: QVQLQESGGGLVQAGDSLRLSCANSGRTRSAMGWFRQAPGKEREFVAAITWSGYGTYYADSVKGRFTISRDNAKNALYLRMNSLKPDDTAVYYCAARRNQYYSYSSASADYDYWGQGTQVTVSS
B2: VHH93 (VHH)
chain: QVQLQESGGGLVQAGDSLRLSCVVSGRFLSGYAVGWFRQAPGNERDFVAAFTWIGGQTSYADSVKGRFTVSRDNAKNTLYLQMNNLKPEDTAVYYCAAKVAIVPPTTARGYDYWGQGTQVTVSS
B3: VHH88 (VHH)
chain: QVQLQESGGGLVQAGDSLTLSCARSGRIFNSVPMGWFRQAPGKEREIVAAISGNGVNTYYADSVKGRFAISRDSAKNTYLQMSSLKPEDTAVYYCAARVTPWDTRYYLDDYQYWGQGTQVTVSS
B4: VHH97 (VHH)
chain: B3 chain with D16G, T19R, R24K, N30S, V56E, A69T, S74N, T104S, Q112H
B5: VHH5, His6-tagged, purified from Pichia pastoris (VHH)
VHH: QVQLQESGGGLVQAGDSLILSCAASGRTFSSSAMGWFRQAPGKEREFVAAITYSGISTEYADSVKGRFTISRDNPKSTLYLRMNSLKAEDTAVYYCAARRNGYYSRSHYSTDYEYWGRGTQVTVSS

Experiments:
[1] = target: recombinant wild-type human MXA (Homo sapiens, UniProt P20591); test: ELISA
M527D MXA = target: T1, M527D MXA
[2] = target: wild-type human MXA (Myxovirus resistance protein A), MAPPIT bait or prey (Homo sapiens, UniProt P20591)

Binder | binding result [1] | binding result (M527D MXA) | binding result [2]
B1 | binds | – | –
B2 | – | binds | binds
B3 | – | binds | binds
B4 | – | binds | binds
B5 | binds | – | –
